From patent US20260042850A1 (LOCKBODY THERAPEUTICS, published 2026) come the findings set out here.

Assay [1] has as its target T1, human C-MET on stably transfected CHO-K1 cells (human, UniProt P08581 25-1390).
T1 construct: also called hucMET; human C-MET+ CHO-K1 cells
Put plainly: flow cytometry, C-MET CHO-K1 cells.

The target in assay [2] is T2, cynomolgus monkey C-MET on stably transfected CHO-K1 cells (cynomolgus monkey, UniProt A0M8R7 25-1381 (Papio anubis entry)).
T2 construct: also called cycMET; cyno C-MET+ CHO-K1 cells
T2 sequence (A0M8R7 25-1381 S170N/I621T limits assumed): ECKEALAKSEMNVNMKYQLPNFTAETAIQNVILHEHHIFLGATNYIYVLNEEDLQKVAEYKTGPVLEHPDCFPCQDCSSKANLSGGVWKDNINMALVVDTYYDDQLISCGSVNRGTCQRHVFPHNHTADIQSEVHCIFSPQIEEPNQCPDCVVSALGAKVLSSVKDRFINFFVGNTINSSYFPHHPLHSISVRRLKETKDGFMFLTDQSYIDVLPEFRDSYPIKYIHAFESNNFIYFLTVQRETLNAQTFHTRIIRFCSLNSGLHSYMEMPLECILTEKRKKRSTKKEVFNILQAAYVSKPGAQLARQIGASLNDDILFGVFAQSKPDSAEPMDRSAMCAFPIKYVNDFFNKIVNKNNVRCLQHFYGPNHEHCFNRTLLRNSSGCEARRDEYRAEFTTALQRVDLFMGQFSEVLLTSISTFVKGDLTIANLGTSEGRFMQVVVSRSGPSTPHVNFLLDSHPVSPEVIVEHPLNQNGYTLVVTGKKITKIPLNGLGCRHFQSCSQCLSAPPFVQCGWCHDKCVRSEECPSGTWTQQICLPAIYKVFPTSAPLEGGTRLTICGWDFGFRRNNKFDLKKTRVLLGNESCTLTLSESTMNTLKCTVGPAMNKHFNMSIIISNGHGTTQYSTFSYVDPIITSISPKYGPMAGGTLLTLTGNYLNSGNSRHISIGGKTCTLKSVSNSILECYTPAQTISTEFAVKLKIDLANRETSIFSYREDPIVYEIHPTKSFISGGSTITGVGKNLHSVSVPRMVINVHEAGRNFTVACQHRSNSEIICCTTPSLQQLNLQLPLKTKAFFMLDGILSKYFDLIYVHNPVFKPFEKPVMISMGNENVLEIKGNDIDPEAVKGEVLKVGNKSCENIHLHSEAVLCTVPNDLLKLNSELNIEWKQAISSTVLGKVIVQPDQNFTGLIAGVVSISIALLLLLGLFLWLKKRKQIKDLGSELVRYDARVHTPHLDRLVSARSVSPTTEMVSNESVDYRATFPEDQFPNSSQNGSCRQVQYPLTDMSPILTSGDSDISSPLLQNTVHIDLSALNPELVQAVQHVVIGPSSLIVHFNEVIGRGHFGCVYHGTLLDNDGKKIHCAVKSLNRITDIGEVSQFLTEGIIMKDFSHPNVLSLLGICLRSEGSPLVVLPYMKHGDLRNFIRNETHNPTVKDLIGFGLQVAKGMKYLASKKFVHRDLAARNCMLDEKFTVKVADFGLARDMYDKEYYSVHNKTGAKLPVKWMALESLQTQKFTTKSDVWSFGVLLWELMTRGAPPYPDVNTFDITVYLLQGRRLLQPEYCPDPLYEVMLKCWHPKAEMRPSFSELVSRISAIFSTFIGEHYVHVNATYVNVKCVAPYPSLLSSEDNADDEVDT
Nature of the assay: flow cytometry, C-MET CHO-K1 cells. (Flow cytometry measures light scatter and fluorescence of single cells or particles in a stream.)

For assay [3], the target named is T1, human C-MET on stably transfected …. Put plainly: flow cytometry, C-MET CHO-K1 cells. The gist of the method:
(§1)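 Purified IgGs titrated three-fold from 500 nM to 0.08 nM on CHO-K1 cells stably expressing C-MET, with wild-type CHO-K1 as control. Detection by FITC-conjugated mouse anti-human IgG; MFI from 10000 cells per sample by flow cytometry.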
The source holds these as a separate data set.

Assay [4] deals with T2, cynomolgus monkey C-MET on stably …. Put plainly: flow cytometry, C-MET CHO-K1 cells. The gist of the method: as §1
The source holds these as a separate data set.

In assay [5] the target is T3, human C-MET His tagged, monomeric (human, UniProt P08581 25-932).
T3 construct: also called monomeric human C-MET; biotinylated human C-MET-His
T3 sequence (P08581 25-932): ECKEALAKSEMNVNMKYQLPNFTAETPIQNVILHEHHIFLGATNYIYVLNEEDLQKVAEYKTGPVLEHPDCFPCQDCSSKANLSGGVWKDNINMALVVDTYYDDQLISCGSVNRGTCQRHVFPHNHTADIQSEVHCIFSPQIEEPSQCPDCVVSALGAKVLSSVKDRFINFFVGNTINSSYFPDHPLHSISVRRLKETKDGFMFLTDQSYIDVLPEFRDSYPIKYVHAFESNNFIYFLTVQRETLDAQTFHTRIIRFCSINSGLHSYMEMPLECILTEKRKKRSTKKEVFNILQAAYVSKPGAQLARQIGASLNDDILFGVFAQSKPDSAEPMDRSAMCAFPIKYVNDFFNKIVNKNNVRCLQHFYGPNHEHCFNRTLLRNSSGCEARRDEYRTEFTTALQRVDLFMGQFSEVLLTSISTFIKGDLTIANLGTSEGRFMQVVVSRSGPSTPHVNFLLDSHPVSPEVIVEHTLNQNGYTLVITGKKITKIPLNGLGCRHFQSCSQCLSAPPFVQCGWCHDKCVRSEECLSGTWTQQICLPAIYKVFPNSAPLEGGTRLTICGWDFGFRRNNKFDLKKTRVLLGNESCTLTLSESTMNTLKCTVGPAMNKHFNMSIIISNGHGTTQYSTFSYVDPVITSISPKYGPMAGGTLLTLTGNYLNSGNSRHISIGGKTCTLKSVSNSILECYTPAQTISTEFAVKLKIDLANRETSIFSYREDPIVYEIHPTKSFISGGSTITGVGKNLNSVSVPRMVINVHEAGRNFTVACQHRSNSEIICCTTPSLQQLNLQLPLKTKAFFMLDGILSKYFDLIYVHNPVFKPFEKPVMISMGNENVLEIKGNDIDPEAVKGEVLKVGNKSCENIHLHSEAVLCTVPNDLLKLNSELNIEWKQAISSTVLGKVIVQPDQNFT
Nature of the assay: SPR Biacore, IgG captured, monomeric C-MET-His analyte. A digest of the protocol:
(§2)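 Purified IgG (50 nM) captured via immobilized anti-human CH1 antibody on a CM5 chip; monomeric His-tagged human or cyno C-MET injected as analyte, 2-fold dilutions 100 nM to 6 nM, 300 s dissociation. HBS-EP pH 7.4 running buffer, reference-channel corrected. KD from 1:1 Langmuir global fit.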
On the technique in general: Surface plasmon resonance follows binding to a sensor surface in real time, without labels.

Assay [6] deals with T4, cynomolgus monkey C-MET His tag, monomeric (cynomolgus monkey, UniProt A0M8R7 25-932 (Papio anubis entry)).
T4 construct: also called monomeric cyno C-MET; cyCMET
T4 sequence (A0M8R7 25-932 S170N/I621T): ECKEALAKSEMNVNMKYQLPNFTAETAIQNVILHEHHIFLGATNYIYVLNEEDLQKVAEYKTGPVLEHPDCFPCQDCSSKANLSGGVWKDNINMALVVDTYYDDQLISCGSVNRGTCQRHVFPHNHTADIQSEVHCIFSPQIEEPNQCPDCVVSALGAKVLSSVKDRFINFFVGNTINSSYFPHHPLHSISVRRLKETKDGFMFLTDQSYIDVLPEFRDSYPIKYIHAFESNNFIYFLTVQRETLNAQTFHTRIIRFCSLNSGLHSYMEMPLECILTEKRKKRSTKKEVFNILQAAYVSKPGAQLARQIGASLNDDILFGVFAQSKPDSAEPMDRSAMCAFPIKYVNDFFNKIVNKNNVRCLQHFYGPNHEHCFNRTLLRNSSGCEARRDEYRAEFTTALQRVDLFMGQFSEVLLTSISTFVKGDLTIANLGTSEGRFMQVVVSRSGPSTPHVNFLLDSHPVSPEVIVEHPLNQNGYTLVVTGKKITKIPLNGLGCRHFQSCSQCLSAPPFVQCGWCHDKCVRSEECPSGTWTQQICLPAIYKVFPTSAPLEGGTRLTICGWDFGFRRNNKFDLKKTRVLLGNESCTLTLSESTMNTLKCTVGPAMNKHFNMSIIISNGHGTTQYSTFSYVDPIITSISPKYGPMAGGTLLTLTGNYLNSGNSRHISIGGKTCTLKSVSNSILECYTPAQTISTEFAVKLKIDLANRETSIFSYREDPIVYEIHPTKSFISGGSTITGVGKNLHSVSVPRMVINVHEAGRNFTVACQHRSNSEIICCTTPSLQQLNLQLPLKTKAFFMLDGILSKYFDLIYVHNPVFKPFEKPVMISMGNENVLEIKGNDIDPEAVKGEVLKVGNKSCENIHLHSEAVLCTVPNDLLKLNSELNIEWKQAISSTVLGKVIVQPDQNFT
Described as above. A digest of the protocol: as §2

Assay [7] has as its target T3, human C-MET His tagged, monomeric. Nature of the assay: Alphascreen epitope competition in solution: varied IgG4(S228P) against 224G11 IgG4(S228P) binding to biotinylated human C-MET, CPS. On the procedure:
FIG. 4. Epitope competition analysis of IgG4(S228P) proteins in Alphascreen. Anti-C-MET IgG4(S228P) clones were applied in an epitope competition assay using Alphascreen technology. In this assay, library-derived and designer IgGs were analysed for their retention of the parental 224G11 epitope by competing for 224G11 IgG4(S228P) binding to human C-MET protein, in solution.
The AlphaScreen assay (Perkin Elmer) was performed in a 25 μl final volume in 384-well white microtiter plates (Greiner). The reaction buffer contained 1×PBS pH 7.3 (Oxoid, Cat. nr. BR0014G) and 0.05% (v/v) Tween® 20 (Sigma, Cat. nr. P9416). Purified IgG samples were titrated in three fold serial dilutions starting at 50 nM final concentration and incubated with biotinylated human C-MET-His (Acrobiosystems) at 1 nM final concentration for 20 minutes at room temperature. The parental IgG and the anti-human IgG4(S228P) Acceptor beads at were added and the mix was incubated for 1 hour at room temperature. Followed by addition of the Streptavidin Donor beads and incubation for 30 minutes at room temperature. The emission of light was measured in the EnVision multilabel plate reader (Perkin Elmer) and analysed using the EnVision manager software. Values were reported as Counts Per Second (CPS) and corrected for crosstalk.

T1 sequence (P08581 25-1390 limits assumed): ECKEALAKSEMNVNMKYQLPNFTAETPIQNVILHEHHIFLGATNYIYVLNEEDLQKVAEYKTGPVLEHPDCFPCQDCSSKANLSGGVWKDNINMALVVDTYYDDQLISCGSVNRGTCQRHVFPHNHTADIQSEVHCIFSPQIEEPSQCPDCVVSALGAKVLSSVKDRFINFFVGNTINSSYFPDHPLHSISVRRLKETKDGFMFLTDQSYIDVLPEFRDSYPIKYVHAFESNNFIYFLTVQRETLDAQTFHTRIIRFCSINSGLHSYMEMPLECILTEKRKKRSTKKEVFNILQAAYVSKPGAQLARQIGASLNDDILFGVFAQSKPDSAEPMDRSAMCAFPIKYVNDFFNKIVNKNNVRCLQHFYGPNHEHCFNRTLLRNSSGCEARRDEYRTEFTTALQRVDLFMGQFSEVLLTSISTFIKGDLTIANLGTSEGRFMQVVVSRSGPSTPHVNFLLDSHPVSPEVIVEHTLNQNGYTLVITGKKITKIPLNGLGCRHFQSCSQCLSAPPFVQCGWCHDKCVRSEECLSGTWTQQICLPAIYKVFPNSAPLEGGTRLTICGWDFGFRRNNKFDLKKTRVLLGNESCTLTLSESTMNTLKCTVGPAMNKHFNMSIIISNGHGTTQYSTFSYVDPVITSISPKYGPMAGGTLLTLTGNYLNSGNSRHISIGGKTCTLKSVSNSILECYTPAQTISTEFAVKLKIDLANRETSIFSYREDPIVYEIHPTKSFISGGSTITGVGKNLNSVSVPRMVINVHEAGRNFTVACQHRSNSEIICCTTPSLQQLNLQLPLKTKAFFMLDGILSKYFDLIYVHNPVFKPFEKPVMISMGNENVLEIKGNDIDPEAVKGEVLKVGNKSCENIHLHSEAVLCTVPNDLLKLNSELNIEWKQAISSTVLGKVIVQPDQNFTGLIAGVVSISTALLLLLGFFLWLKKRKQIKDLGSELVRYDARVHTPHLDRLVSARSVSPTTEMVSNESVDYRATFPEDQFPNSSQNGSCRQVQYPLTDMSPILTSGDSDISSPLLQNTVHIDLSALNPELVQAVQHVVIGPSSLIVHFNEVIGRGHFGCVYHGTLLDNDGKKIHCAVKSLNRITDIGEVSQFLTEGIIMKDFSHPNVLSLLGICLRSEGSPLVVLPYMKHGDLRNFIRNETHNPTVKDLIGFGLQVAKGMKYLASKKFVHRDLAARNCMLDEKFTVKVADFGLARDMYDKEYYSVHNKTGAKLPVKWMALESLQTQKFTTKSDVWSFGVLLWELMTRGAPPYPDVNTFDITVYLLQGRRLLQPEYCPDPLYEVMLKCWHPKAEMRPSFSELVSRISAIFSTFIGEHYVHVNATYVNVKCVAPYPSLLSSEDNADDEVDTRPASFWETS

B1: 04E10 (antibody, IgG4, V domains shown)
VH: QVQLVQSGAEVKKPGASVKVSCKASGYIFTSYTMHWVRQAPGQGLEWMGWIKPNNGSASYAQKFQGRVTMTRDTSTSTVYMELSSLRSEDTAVYYCARSEITTEEDYWGQGTLVTVSS
VL: EIVLTQSPGTLSLSPGERATLSCRASQSVDSYANSYLHWYQQKPGQAPRLLIYRGSTRESGIPDRFSGSGSGTDFTLTISRLEPEDFAVYYCQQSKSEPLTFGGGTKVEIK
For B1, the “maximum MFI, fold over Isotype IgG4 background” value in assay [1] and in assay [2] was more than 10 fold throughout. Besides, the values for the EC50 in assay [3] and in assay [4] were 9.66 nM and 2.94 nM, respectively. The Kd in assay [5] worked out at 1.6 nM; in assay [6], 2.2 nM. Moreover, the koff in assay [5] was found to be 5e-05 s⁻¹; in assay [6] it was 0.00011 s⁻¹. The kon in assay [5] is 31000 M⁻¹ s⁻¹; in assay [6], 49000 M⁻¹ s⁻¹. For the same molecule, the “IC50 (read off the curve)” value in assay [7] was approximately 2 nM.

The EC50 is the concentration at which the effect is half-maximal. By Kd is commonly meant the concentration at which binding is half-saturated. The koff is a measure of how fast the partners let go of each other. What is called kon is the second-order rate constant of association.
